How the values were obtained:
Test in all cases: cell-based or functional assay
[1] = target: T1, rat ANGPTL3(17-455)-His (rat, biotin-labeled in the ELISA and HTRF assays (sites not given))
T1 chain: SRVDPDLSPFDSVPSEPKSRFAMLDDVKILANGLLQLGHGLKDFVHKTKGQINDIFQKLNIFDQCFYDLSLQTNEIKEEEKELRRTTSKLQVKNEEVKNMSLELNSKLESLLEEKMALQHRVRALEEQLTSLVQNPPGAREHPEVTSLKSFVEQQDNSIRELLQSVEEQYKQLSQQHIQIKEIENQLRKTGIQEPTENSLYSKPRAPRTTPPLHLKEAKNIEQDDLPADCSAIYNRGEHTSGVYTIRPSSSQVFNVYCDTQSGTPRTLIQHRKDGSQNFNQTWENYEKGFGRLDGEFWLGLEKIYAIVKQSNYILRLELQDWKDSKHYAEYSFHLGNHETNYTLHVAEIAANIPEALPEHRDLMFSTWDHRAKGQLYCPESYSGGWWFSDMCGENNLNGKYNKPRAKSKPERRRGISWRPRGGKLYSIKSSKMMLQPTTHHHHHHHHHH

[2] = target: T2, mouse ANGPTL3(17-455)-His (mouse, UniProt Q9R182 17-455, biotin-labeled in the ELISA and HTRF assays (sites not given))
T2 sequence: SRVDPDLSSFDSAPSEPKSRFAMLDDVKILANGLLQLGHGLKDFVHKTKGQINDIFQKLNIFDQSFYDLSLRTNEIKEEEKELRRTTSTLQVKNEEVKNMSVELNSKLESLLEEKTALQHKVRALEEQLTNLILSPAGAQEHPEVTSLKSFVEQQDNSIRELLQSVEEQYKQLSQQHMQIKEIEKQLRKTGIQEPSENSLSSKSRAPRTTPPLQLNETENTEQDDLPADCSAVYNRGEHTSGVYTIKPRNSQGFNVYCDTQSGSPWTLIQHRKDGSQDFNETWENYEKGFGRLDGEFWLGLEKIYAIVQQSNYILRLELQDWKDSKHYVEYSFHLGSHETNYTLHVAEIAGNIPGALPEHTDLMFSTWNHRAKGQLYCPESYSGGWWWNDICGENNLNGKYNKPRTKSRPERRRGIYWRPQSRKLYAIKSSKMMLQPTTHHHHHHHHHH

[3] = target: T3, cynomolgus monkey ANGPTL3(17-460)-His (cynomolgus monkey, UniProt Q9Y5C1 17-460 (human entry), biotin-labeled in the ELISA and HTRF assays (sites not given))
T3 chain: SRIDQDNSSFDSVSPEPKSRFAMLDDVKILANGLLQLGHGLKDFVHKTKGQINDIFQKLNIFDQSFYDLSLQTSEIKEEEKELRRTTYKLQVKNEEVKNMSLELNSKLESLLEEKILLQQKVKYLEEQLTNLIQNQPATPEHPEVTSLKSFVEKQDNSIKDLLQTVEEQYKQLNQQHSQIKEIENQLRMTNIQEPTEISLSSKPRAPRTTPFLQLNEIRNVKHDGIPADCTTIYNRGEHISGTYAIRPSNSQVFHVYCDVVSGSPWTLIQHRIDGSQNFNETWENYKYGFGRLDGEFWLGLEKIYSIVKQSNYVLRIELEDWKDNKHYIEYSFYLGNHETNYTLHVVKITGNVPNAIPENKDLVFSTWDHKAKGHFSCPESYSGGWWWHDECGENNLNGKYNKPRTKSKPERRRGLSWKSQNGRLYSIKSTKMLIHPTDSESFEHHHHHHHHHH

[4] = target: T4, human ANGPTL3(17-170)-Flag-His (human, UniProt Q9Y5C1 17-170)
T4 sequence: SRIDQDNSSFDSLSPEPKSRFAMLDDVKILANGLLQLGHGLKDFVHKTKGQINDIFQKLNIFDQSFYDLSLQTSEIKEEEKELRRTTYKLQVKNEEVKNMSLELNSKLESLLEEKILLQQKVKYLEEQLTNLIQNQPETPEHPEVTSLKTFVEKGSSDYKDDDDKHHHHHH

B1: P8BG (antibody, human IgG4 S228P, kappa, V domains shown)
VH: QVQLVQSGAEVKKPGASVKVSCKASGYTFTSYDINWVRQAPGQGLEWVGLINPREDSTSYAQKFQGRVTMTRDTSTSTMYMELSSLRSEDTAVYFCARDLGSIREVLYYGMDVWGQGTTVTVSS
VL: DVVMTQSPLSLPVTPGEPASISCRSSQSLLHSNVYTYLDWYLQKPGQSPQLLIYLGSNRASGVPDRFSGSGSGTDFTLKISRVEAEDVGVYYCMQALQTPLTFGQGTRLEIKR
- IC50 (nM), activity in blocking the inhibition of LPL by ANGPTL3 (bovine LPL enzyme activity assay) [1]: 132 nM
- IC50 (nM), activity in blocking the inhibition of LPL by ANGPTL3 (bovine LPL enzyme activity assay) [2]: 41.5 nM
- IC50 (nM), activity in blocking the inhibition of LPL by ANGPTL3 (bovine LPL enzyme activity assay) [3]: 53.6 nM
- IC50 (nM), activity in blocking the inhibition of LPL by ANGPTL3 (bovine LPL enzyme activity assay) [4]: 75.3 nM
